The conditions of assay [1]: Randox naloxone assay, competitive chemiluminescent immunoassay; cited from earlier work.
Assay [2] can be described thus: inhibition ELISA, anti-naloxone monoclonal antibodies against key opioids (FIG. 7). The conditions noted are these: free drug 20 μg/mL, plates coated with ovalbumin conjugate. The assay is classed as binding. An excerpt:
(§1) Mice with good anti-drug antibody titers and binding to free drug in the ELISA inhibition assays were selected to proceed with generation of monoclonal antibodies, in a similar manner to that described in U.S. Pat. No. 9,815,907 (issued to Sharma et al. on Nov. 14, 2017). In particular, mice with highest titers and best specificity were boosted three days prior to fusion. On the day of fusion, spleen cells were harvested from these mice and were fused with myeloma cell line P3X63Ag8.653 using PEG-assisted fusion protocols. After about ten days, hybridoma supernatants were screened for anti-naloxone and anti-naltrexone antibodies using a plate ELISA (direct binding and inhibition ELISA for specificity). Positive clones were further expanded and sub-cloned, and supernatants were purified using a Protein A SEPHAROSE® (GE Healthcare, Chicago, IL) column. Purified antibody samples were tested using ELISA for binding to the immunogen (i.e., a conjugate of drug-carrier protein) and to free opioids.
(§2) Antibody solution (Immune mouse bleeds or hybridoma clones supernatant or purified antibody) was screened using an inhibition ELISA procedure according to the following protocol. […] Plate coating was performed for 1 hour or more at room temperature or overnight at about 2° C. to 8° C. The plates were then flicked dry and blocked with 200 μL per well of blocking buffer solution (0.5% Casein solution in PBS containing 0.05% TWEEN® 20 surfactant (Croda International PLC, Snaith, United Kingdom). Plate blocking was performed by incubation for 30 minutes or more at room temperature with plate shaking. The plates were washed using a plate washer (BioTek®, Winooski, VT) with plate stacker with the washing buffer being MILLIQ® water (Millipore Corporation, Billerica, MA) containing 0.05% TWEEN® 20. The monoclonal antibody to be screened was then added to each well along with free drug as follows: 25 μL per well of appropriately diluted culture supernatant (or antibody solution) and added 25 μL of 20 μg/mL of free drug. Incubation was performed for about 1 hour at room temperature with plate shaking. The plate was washed. An enzyme conjugate (goat anti-mouse IgG coupled to HRP diluted in blocking buffer diluted to 1:3000) was added at 50 μL per well. Incubation was performed for about 1 hour at room temperature with shaking. The plate was then washed, and a chromogenic solution (TMB from Moss Substrates, Pasadena MD) was added at a volume of 100 μL per well. If a desired antibody was present in the hybridoma supernatant, then a decrease in optical density was observed compared to the well containing no free drug. The plates were read at 650 nm wavelength using an ELISA plate reader (Molecular Devices, San Jose, CA). Note: appropriate dilution of antibody solution was determined by performing a titration ELISA. The antibody dilution was chosen where around 1.0 optical density was observed.
For orientation: An ELISA detects its analyte on a solid surface through an enzyme-linked reagent.

Assay [3] can be described thus: opiate enzyme multiplied immunoassay with antibody blocker (FIG. 11, FIG. 12). Conditions: cutoff 300 ng/mL; FIG. 11 and FIG. 12.
The nature of assay [4]: naloxone and naltrexone specific immunoassays (FIG. 9, FIG. 10). The assay is classed as binding. Conditions: FIG. 9 and FIG. 10. An excerpt:
An EMIT® II (enzyme multiplied immunoassay, Siemens Healthineers, Newark, DE) Plus Naloxone and/or Naltrexone Assay is a homogeneous enzyme immunoassay technique used for the analysis of specific compounds in human urine. The assay is based on competition between drug in the specimen and drug labeled with glucose-6-phosphate dehydrogenase (rG6PDH) for antibody binding sites. Enzyme activity decreases upon binding to the antibody, so the drug concentration in the specimen can be measured in terms of enzyme activity. Active enzyme converts nicotinamide adenine dinucleotide (NAD) to NADH in the presence of glucose-6-phosphate (G6P), resulting in an absorbance change that is measured spectrophotometrically.
The EMIT® assay format comprises an antibody/substrate reagent, known as reagent 1. This reagent includes the antibody as well as buffers, preservatives, and stabilizers for the assay. The EMIT® assay format also comprises an enzyme reagent, known as reagent 2. This reagent includes the conjugate as well as buffers, preservatives, and stabilizers for the assay.

Assay [5] is described as follows: inhibition ELISA, anti-naltrexone monoclonal antibodies against key opioids (FIG. 8). The format is binding. Conditions: free drug 20 μg/mL, plates coated with ovalbumin conjugate.
Excerpt: as §1, §2

The nature of assay [6]: hydrocodone assay with antibody blocker (FIG. 13). Conditions: cutoff 300 ng/ml.

Results on six molecules are retold here after patent US12404346B2, “Anti-naloxone and anti-naltrexone monoclonal antibodies and methods of production and use thereof” (Siemens Healthcare Diagnostics Inc., priority 2019, dated 2025).

On to `C=CCN1CC[C@]23c4c5ccc(O[C@@H]6O[C@H](C(=O)O)[C@@H](O)[C@H](O)[C@H]6O)c4O[C@H]2C(=O)CC[C@@]3(O)[C@H]1C5` [naloxone 3-B-D glucuronide], for which the level of cross-reactivity in assay [1] is 70.6%.

B1: 179A 6H6: anti-naloxone monoclonal antibody generated using naloxone-3-Val-mcKLH; heavy chain SEQ ID NO:221, light chain SEQ ID NO:225 (antibody, V domains shown)
VH: MYLGLNCVIIVFLLKGVQSEVKLEESGGGLVPPGGSMKLSCSVSGFTFSDAWIDWVRQSPEKGLEWIAESRNKANNYAIYYTESVKGRFTISRDDSKSRVYLQMNNLRVEDTGIYYCTGPDYDSYWGGTLVTVSA
VL: MEFQTQVFVFVLLWLSGVDGDVVMTQSQKIMSTSVGDRVSITCKASQNVRTAVTWYQLKPGQSPKALIYLASNRHTGVPDRFRGSGSGTDFTLTIINVQSEDLADYFCLQHWNYPLTFGAGTKLELK
modifications: Amino acid sequence of heavy chain of monoclonal antibody 179A 6H6; Amino acid sequence of light chain of monoclonal antibody 179A 6H6
Regarding B1, the “specificity for naloxone over the other key opioids tested in the inhibition ELISA assay” value in assay [2] is “good specificity for naloxone”. In assay [3], the “change of naloxone/naltrexone cross reactivity response in the presence of the antibody blocker” value was “cross reactivity of naloxone changes from a positive to a negative response to the cutoff”. Moreover, in assay [4], the “detection of naloxone and naltrexone in specific assays” value is “detects both naloxone and naltrexone at substantially the same specificity”.

B2: 180C 2A12: anti-naltrexone monoclonal antibody generated using naltrexone-3-Val-mcKLH; heavy chain SEQ ID NO:1, light chain SEQ ID NO:5 (antibody)
heavy: MGWSWIFLFLLSGTAGVHCQVQLQQSGPELVKPGGSVKLSCKASGYIFNDYTIHWMKQSPGQGLEWIGWMNRRSFNTMYNDKFKGKATMTVDKSSSTAYIQLSSLTSDDSAVYFCVRDVYDNLDYWGQGTSVTVSSAKTTPPSVYPLAPGSAAQTNSMVTLGCLVKGYFPEPVTVTWNSGSLSSGVHTFPAVLQSDLYTLSSSVTVPSSTWPSETVTCNVAHPASSTKVDKKIVPRDCGCKPCICTVPEVSSVFIFPPKPKDVLTITLTPKVTCVVVDISKDDPEVQFSWFVDDVEVHTAQTQPREEQFNSTFRSVSELPIMHQDWLNGKEFKCRVNSAAFPAPIEKTISKTKGRPKAPQVYTIPPPKEQMAKDKVSLTCMITDFFPEDITVEWQWNGQPAENYKNTQPIMDTDGSYFIYSKLNVQKSNWEAGNTFTCSVLHEGLHNHHTEKSLSHSPGK
light: MKLPVRLLVLMFWIPASSSDVLMTQTPLSLPVSLGDQASISCRSSQSIVHSNGNTYLEWYLQKPGQSPRLLIYKVSNRFSGVPDRFSGSGSGTDFTLRISRVEAEDLGLYYCFQGSHVPLTFGAGTKLELKRADAAPTVSIFPPSSEQLTSGGASVVCFLNNFYPRDINVKWKIDGSERQNGVLNSWTDQDSKDSTYSMSSTLTLTKDEYERHNSYTCEATHKTSTSPIVKSFNRNEC
modifications: Amino Acid sequence of heavy chain of monoclonal antibody SHC 004; Amino acid sequence of Light Chain of monoclonal antibody SHC 004
Take B2: the “detection of naloxone and naltrexone in specific assays” value in assay [4] is recorded as “capable of detecting naloxone in addition to naltrexone, albeit at a lower specificity compared to naltrexone”. The “specificity for naltrexone over the other key opioids tested in the inhibition ELISA assay” value in assay [5] is reported as “good specificity for naltrexone”. In addition, in assay [6], the “effect of the antibody blocker on amount of naloxone and naltrexone giving a negative response” value was “increase the amount of naloxone and naltrexone that produces a negative response to the cutoff”.

B3: 179B 9E7: anti-naloxone monoclonal antibody generated using naloxone-3-Val-mcKLH; heavy chain SEQ ID NO:241, light chain SEQ ID NO:245 (antibody)
heavy: MYLGLNCVIIVFLLKGVQSEMKLEESGGGLVQPGGSMKLSCTASGFTFSDAWMDWVRQSPEKGLEWVAEIRNKAYNHATYYAESVRGRFTISRDDSKSKMFLEMNSLRPEDTGIYYCIGGIWTDFDYGQGTTLTVSS
light: MESQTQVFVYMLLWLSGVDGDIVMTQSQKFMSTSVGDRVSVTCKASQNVGINVAWYQQKSGQPPKALIYSASSRYSGVPDRFTGSGSGTDFTLTISNVQSEDLAEYFCHQYNNYPLTFGAGTKLDLK
modifications: Amino acid sequence of heavy chain of monoclonal antibody 179B 9E7; Amino acid sequence of light chain of monoclonal antibody 179B 9E7
Take B3: the “specificity for naloxone over the other key opioids tested in the inhibition ELISA assay” value in assay [2] is recorded as “good specificity for naloxone”.

B4: 179B 10A7: anti-naloxone monoclonal antibody generated using naloxone-3-Val-mcKLH; heavy chain SEQ ID NO:201, light chain SEQ ID NO:205 (antibody, V domains shown)
VH: MGWSWIFLFLLSGTAGVHCQIQLQQSGPELVKPGASVKISCKASDYSFTKSYINWVKQRPGQGLEWIGWIYPGSANIKYNEKFRDKATLTVDTSSNTAYIQLSSLTSEDSAVYFCEMGTHYTYDVMDWGQGTSVTVSS
VL: MEFQTQVFVFVLLWLSGVDGDIVMTPSQKFMSTSVGDRVSITCKASQNVRTSVGWYQQKPGQSPKPLIYAASNRHTGVPDRFTGSGSGTDFSLTITNVQSEDQADYFCLQHWNYPWTFGGGTKLEIK
modifications: Amino acid sequence of heavy chain of monoclonal antibody 179B 10A7; Amino acid sequence of light chain of monoclonal antibody 179B 10A7
Take B4: the “specificity for naloxone over the other key opioids tested in the inhibition ELISA assay” value in assay [2] is “good specificity for naloxone”.

B5: 180A 3D3: anti-naltrexone monoclonal antibody generated using naltrexone-3-Val-mcKLH; heavy chain SEQ ID NO:21, light chain SEQ ID NO:25 (antibody)
heavy: MYLGLNCVFIVFLLKGVQSEVNLEESGGGLVQPGGSMKLSCVASGFTFSNYWMNWVRQSPERGLEWVAEISLKSYNYATHYAESVKGRFTISGDESKNSVYLQMNNLRAEDTGIYFCTRGDSYALDYGQRTLVTVSS
light: MEFQTQVLMSLLLCMSGACADIVMTQSPTFLAVTVSKKVTISCTASESLYSSKHKVHYLAWYQKKPEQSPKLLIYGASNRYIGVPDRFTGSGSGTDFTLTISSVQVEDLTHYYCAQFYSYPYTFGGGKLEIK
modifications: Amino Acid sequence of heavy chain of monoclonal antibody 180A 3D3; Amino Acid sequence of light chain of monoclonal antibody 180A 3D3
Take B5: the “change of naloxone/naltrexone cross reactivity response in the presence of the antibody blocker” value in assay [3] is “cross reactivity of naloxone and naltrexone changes from a positive to a negative response to the cutoff”. Besides, the “specificity for naltrexone over the other key opioids tested in the inhibition ELISA assay” value in assay [5] is recorded as “good specificity for naltrexone”.
